Reference: the supplement of paper PMC12067230
± gives the uncertainty stated by the source.

test: amyloid nucleation score relative to WT ADan (yeast Sup35 reporter selection) (log enrichment difference); higher = more amyloid nucleation
Protocol: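 Deep mutational scan of the ADan peptide fused to the Sup35 nucleation domain (SupN) in S. cerevisiae [psi-pin-], covering all single amino-acid substitutions and stop truncations (truncations = sequence up to the stop). After 24 h Cu2+ induction, cells were selected on -ADE-URA plates for 7 d at 30 °C. The nucleation score is log enrichment (output/input, deep sequencing) minus that of WT ADan, as the error-weighted mean of 3 biological replicates (DiMSum).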

Row | Substance | amyloid nucleation score
1 | EASNCFAIRHFENKF [A-16-*] | -4.34 ± 0.67
2 | EASNCFAIRHFENKFAVET [L-20-*] | -4.16 ± 0.68
3 | EAS [N-4-*] | -2.54 ± 0.48
4 | EASNCFAIR [H-10-*] | -4.06 ± 0.6
5 | EASNCFAIRHF [E-12-*] | -3.42 ± 0.34
6 | EASNCFAI [R-9-*] | -3.67 ± 0.55
7 | EASN [C-5-*] | -4.07 ± 0.81
8 | EASNCFAIRH [F-11-*] | -3.45 ± 0.39
9 | EASNCFAIRHFENK [F-15-*] | -4.43 ± 0.56
10 | EASNCFAIRHFEN [K-14-*] | -4.92 ± 0.57
11 | EASNCFA [I-8-*] | -3.92 ± 0.58
12 | EASNC [F-6-*] | -3.12 ± 0.32
13 | EASNCFAIRHFENKFAVE [T-19-*] | -3.43 ± 0.55
14 | EASNCFAIRHFE [N-13-*] | -5.86 ± 0.85
15 | EASNCFAIRHFENKFAV [E-18-*] | -3.23 ± 0.49
16 | EASNCF [A-7-*] | -4.37 ± 0.56
17 | EASNCFAIRHFENKFA [V-17-*] | -5.63 ± 1.4
